For experiment [1], the target named is T1, human CXCR4 (chemokine (C-X-C motif) receptor 4) (human, UniProt P61073 1-352).
T1 construct: Endogenous on human tumour cell lines (Ramos, HPB-ALL, Raji, Jurkat, MM1.S, RPMI-8226, MOLP-8, MOLT-4) or transfected into CHO-K1 cells (DiscoveRx); also called CXCR4 receptor
Nature of the experiment: flow cytometry on HPB-ALL cells, Fab at 2.5 µg/ml.

The target in experiment [2] is T1, human CXCR4 (chemokine (C-X-C motif) …). The experiment is described as follows: flow cytometry on HPB-ALL cells, Fab at 0.25 µg/ml.
Experiment [3] shares this target. Nature of the experiment: flow cytometry on HPB-ALL cells, Fab at 0.25 µg/mL. Here is the method: Binding of CXCR4 Fabs to CXCR4-expressing cells were measured by flow cytometry on HPB-ALL (Human T cell leukemia) cells. 150,000 HPB-ALL cells were resuspended in 100 uL FACS buffer (1×PBS+0.5% BSA) on 96 well plates. […] After removing the primary antibodies the cells were washed twice with FACS buffer and then resuspended in FACS buffer and 2 uL (3 ug) of 2nd Ab (Alexa Fluor 647-conjugated goat anti-human IgG, F(ab′)2 specific, Jackson ImmunoResearch Laboratories, West Grove Pa.) was then added to each well. The plates were incubated at 4 degree for another 30 min. Fluorescence signals were acquired by cell analyzer LSRII (BD Biosciences, San Jose Calif.).
Background: In flow cytometry, cells or beads pass a laser one at a time.

The target in experiment [4] is T2, human CXCR4-enriched lipoparticles (LEV101, Integral Molecular) (human, UniProt P61073 1-352).
T2 construct: Bought reagent; CXCR4 held in lipoparticles captured by biotinylated WGA on an SA chip; also called Lipoparticles containing CXCR4 proteins
Nature of the experiment: biosensor kinetic titration, Fab over captured human CXCR4 lipoparticles. Here is the method: The binding affinity of each Fab was determined using human CXCR4-enriched lipoparticles (LEV101, Integral Molecular, Philadelphia Pa.). Biotinylated WGA (Sigma Aldrich, St. Louis Mo.)) can be coated on the SA chip to facilitate capturing lipoparticles containing CXCR4 proteins. […] J. Mol. Recognit.

T1 sequence (P61073 whole entry): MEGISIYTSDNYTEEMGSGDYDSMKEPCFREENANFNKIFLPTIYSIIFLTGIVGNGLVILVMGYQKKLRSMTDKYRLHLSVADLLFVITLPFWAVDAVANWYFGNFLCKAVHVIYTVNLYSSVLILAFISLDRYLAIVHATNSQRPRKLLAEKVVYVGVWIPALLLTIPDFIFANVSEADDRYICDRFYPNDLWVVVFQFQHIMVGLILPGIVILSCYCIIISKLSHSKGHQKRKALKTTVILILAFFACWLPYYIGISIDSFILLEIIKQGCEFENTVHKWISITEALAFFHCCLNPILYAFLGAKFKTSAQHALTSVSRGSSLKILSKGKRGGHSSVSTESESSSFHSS
T2 sequence (P61073 whole entry): as above

B1: h3G10.1.7 VH / h3G10.2.72 VL Fab (Fab, V domains shown)
VH: EVQLVESGGGLVQPGGSLRLSCAASGFTFSDYYMSWVRQAPGKGLEWVGFIRHKANKYTTEYSTSVKGRFTISRDDSKNSLYLQMNSLKTEDTAVYYCARDLPGFAYWGQGTLVTVSS
VL: DIVMTQSPDSLAVSLGERATINCKSSQSLFNSRTRKNYLAWYQQKPGQPPKLLIYWASARESGVPDRFSGSGSGTDFTLTISSLQAEDVAVYYCKQSFRLRTFGGGTKVEIK
notes: Tested as Fab
For the molecule B1, the MFI in experiment [1] was 4120; in experiment [2], 768.

B2: h3G10.2.37 VH / h3G10.A58A VL Fab (Fab, V domains shown)
VH: EVQLVESGGGLVQPGGSLRLSCAASGFTFSDYYMSWVRQAPGKGLEWVGFIRHKANFYTREYSTSVKGRFTISRDDSKNSLYLQMNSLKTEDTAVYYCARDLPGFAYWGQGTLVTVSS
VL: DIVMTQSPDSLAVSLGERATINCKSSQSLFNSHTRKNYLAWYQQKPGQPPKLLIYWASARGSGVPDRFSGSGSGTDFTLTISSLQAEDVAVYYCKQSFRLRTFGGGTKVEIK
notes: Tested as Fab
Usually Kd stands for the constant that tells how readily two partners part at equilibrium. In general, koff refers to the rate constant with which the complex falls apart. Read a low koff as a long-lived complex. A word on the kon: it is the second-order rate constant of association. Usually t½ stands for how long it takes for the measured level to halve. Read a high t½ as slow loss. In experiment [3], B2 gave an MFI of 4070. In addition, in experiment [4], the affinity, expressed as Kd, was 320 pM; the koff was 0.000418 s⁻¹; the kon was 1.29e+06 M⁻¹ s⁻¹; the “t½” value was determined as 27.6 min.

B3: h3G10.1.91 VH / h3G10.A58B VL Fab (Fab, V domains shown)
VH: EVQLVESGGGLVQPGGSLRLSCAASGFTFSDYYMSWVRQAPGKGLEWVGFIRHKANFETTEYSTSVKGRFTISRDDSKNSLYLQMNSLKTEDTAVYYCARDLPGFAYWGQGTLVTVSS
VL: DIVMTQSPDSLAVSLGERATINCKSSQSLFNSHTRKNYLAWYQQKPGQPPKLLIYWASARGSGVPDRFSGSGSGTDFTLTISSLQAEDVAVYYCKQSFNLRTFGGGTKVEIK
notes: Tested as Fab
With B3, in experiment [3], the MFI was 4630. Moreover, in experiment [4], binding was put at a Kd of 360 pM, the koff was found to be 0.000286 s⁻¹, the on-rate (kon) came out at 803000 M⁻¹ s⁻¹ and the “t½” value was determined as 40.4 min.

B4: h3G10.3.25 VH / h3G10.2.72 VL Fab (Fab, V domains shown)
VH: EVQLVESGGGLVQPGGSLRLSCAASGFTFSDYYMSWVRQAPGKGLEWVGFIRHKANFYTTEYSTSDKGRFTISRDDSKNSLYLQMNSLKTEDTAVYYCARDLPGFAYWGQGTLVTVSS
VL: DIVMTQSPDSLAVSLGERATINCKSSQSLFNSRTRKNYLAWYQQKPGQPPKLLIYWASARESGVPDRFSGSGSGTDFTLTISSLQAEDVAVYYCKQSFRLRTFGGGTKVEIK
notes: Tested as Fab
Turning to B4, the MFI in experiment [1] worked out at 2680; in experiment [2], 454.

B5: h3G10.2.45 VH / h3G10.2.72 VL Fab (Fab, V domains shown)
VH: EVQLVESGGGLVQPGGSLRLSCAASGFTFSDYYMSWVRQAPGKGLEWVGFIRHKANFYTTEYSTWVKGRFTISRDDSKNSLYLQMNSLKTEDTAVYYCARDLPGFAYWGQGTLVTVSS
VL: DIVMTQSPDSLAVSLGERATINCKSSQSLFNSRTRKNYLAWYQQKPGQPPKLLIYWASARESGVPDRFSGSGSGTDFTLTISSLQAEDVAVYYCKQSFRLRTFGGGTKVEIK
notes: Tested as Fab
Take B5: the MFI in experiment [1] amounted to 2780; in experiment [2], 929.

B6: h3G10.A57 VH / h3G10.A58B VL Fab (Fab, V domains shown)
VH: EVQLVESGGGLVQPGGSLRLSCAASGFTFSDYYMSWVRQAPGKGLEWVGFIRHKANFYTTEYSTSVKGRFTISRDDSKNSLYLQMNSLKTEDTAVYYCARDLPGFAYWGQGTLVTVSS
VL: DIVMTQSPDSLAVSLGERATINCKSSQSLFNSHTRKNYLAWYQQKPGQPPKLLIYWASARGSGVPDRFSGSGSGTDFTLTISSLQAEDVAVYYCKQSFNLRTFGGGTKVEIK
notes: Tested as Fab
Consider B6, for which the MFI in experiment [3] amounted to 3090. In experiment [4], the Kd was determined as 750 pM, the koff was 0.000515 s⁻¹, the kon came to 688000 M⁻¹ s⁻¹ and the “t½” value came to 22.4 min.

B7: h3G10.2.37 VH / h3G10.A58B VL Fab (Fab, V domains shown)
VH: EVQLVESGGGLVQPGGSLRLSCAASGFTFSDYYMSWVRQAPGKGLEWVGFIRHKANFYTREYSTSVKGRFTISRDDSKNSLYLQMNSLKTEDTAVYYCARDLPGFAYWGQGTLVTVSS
VL: DIVMTQSPDSLAVSLGERATINCKSSQSLFNSHTRKNYLAWYQQKPGQPPKLLIYWASARGSGVPDRFSGSGSGTDFTLTISSLQAEDVAVYYCKQSFNLRTFGGGTKVEIK
notes: Tested as Fab
In experiment [3], B7 came in with an MFI of 4550. In addition, in experiment [4], binding was characterised by a dissociation constant (Kd) of 560 pM, the koff amounted to 0.000449 s⁻¹, the on-rate constant (kon) is 797000 M⁻¹ s⁻¹ and the “t½” value came to 25.7 min.

B8: h3G10.1.60 VH / h3G10.2.72 VL Fab (Fab, V domains shown)
VH: EVQLVESGGGLVQPGGSLRLSCAASGFTFSDYYMSWVRQAPGKGLEWVGFIRHKANVYTTEYSTSVKGRFTISRDDSKNSLYLQMNSLKTEDTAVYYCARDLPGFAYWGQGTLVTVSS
VL: DIVMTQSPDSLAVSLGERATINCKSSQSLFNSRTRKNYLAWYQQKPGQPPKLLIYWASARESGVPDRFSGSGSGTDFTLTISSLQAEDVAVYYCKQSFRLRTFGGGTKVEIK
notes: Tested as Fab
As to B8, the MFI in experiment [1] is 2810; in experiment [2] it was 396.

B9: h3G10.1.33 VH / h3G10.2.72 VL Fab (Fab, V domains shown)
VH: EVQLVESGGGLVQPGGSLRLSCAASGFTFSDYYMSWVRQAPGKGLEWVGFIRHKANFYTTEYSTSVTGRFTISRDDSKNSLYLQMNSLKTEDTAVYYCARDLPGFAYWGQGTLVTVSS
VL: DIVMTQSPDSLAVSLGERATINCKSSQSLFNSRTRKNYLAWYQQKPGQPPKLLIYWASARESGVPDRFSGSGSGTDFTLTISSLQAEDVAVYYCKQSFRLRTFGGGTKVEIK
notes: Tested as Fab
Turning to B9, the MFI in experiment [1] is 4140; in experiment [2] it was 848.

B10: h3G10.B44 VH / h3G10.A58A VL Fab (Fab, V domains shown)
VH: EVQLVESGGGLVQPGGSLRLSCAASGFTFSDYYMSWVRQAPGKGLEWVSFIRHKANFYTTEYSTSVKGRFTISRDNSKNTLYLQMNSLRAEDTAVYYCAKDLPGFAYWGQGTLVTVSS
VL: DIVMTQSPDSLAVSLGERATINCKSSQSLFNSHTRKNYLAWYQQKPGQPPKLLIYWASARGSGVPDRFSGSGSGTDFTLTISSLQAEDVAVYYCKQSFRLRTFGGGTKVEIK
notes: Tested as Fab
With B10, the figures for the MFI in experiment [1] and in experiment [2] were 9410 and 5120, respectively.

B11: h3G10.2.54 VH / h3G10.2.72 VL Fab (Fab, V domains shown)
VH: EVQLVESGGGLVQPGGSLRLSCAASGFTFSDYYMSWVRQAPGKGLEWVGFIRHKANFYTTEYSTSVRGRFTISRDDSKNSLYLQMNSLKTEDTAVYYCARDLPGFAYWGQGTLVTVSS
VL: DIVMTQSPDSLAVSLGERATINCKSSQSLFNSRTRKNYLAWYQQKPGQPPKLLIYWASARESGVPDRFSGSGSGTDFTLTISSLQAEDVAVYYCKQSFRLRTFGGGTKVEIK
notes: Tested as Fab
As for B11, the MFI in experiment [1] was determined as 4610; in experiment [2], 1740.

B12: h3G10.A57 VH / h3G10.2.25 VL Fab (Fab, V domains shown)
VH: EVQLVESGGGLVQPGGSLRLSCAASGFTFSDYYMSWVRQAPGKGLEWVGFIRHKANFYTTEYSTSVKGRFTISRDDSKNSLYLQMNSLKTEDTAVYYCARDLPGFAYWGQGTLVTVSS
VL: DIVMTQSPDSLAVSLGERATINCRSSQSLFNSRTRKNYLAWYQQKPGQPPKLLIYWASARESGVPDRFSGSGSGTDFTLTISSLQAEDVAVYYCKQSFRLRTFGGGTKVEIK
notes: Tested as Fab
For the molecule B12, the MFI in experiment [1] came out at 5000; in experiment [2] it was 1380.

B13: h3G10.2.42 VH / h3G10.2.72 VL Fab (Fab, V domains shown)
VH: EVQLVESGGGLVQPGGSLRLSCAASGFTFSDYYMSWVRQAPGKGLEWVGFIRHKVNFYTTEYSTSVKGRFTISRDDSKNSLYLQMNSLKTEDTAVYYCARDLPGFAYWGQGTLVTVSS
VL: DIVMTQSPDSLAVSLGERATINCKSSQSLFNSRTRKNYLAWYQQKPGQPPKLLIYWASARESGVPDRFSGSGSGTDFTLTISSLQAEDVAVYYCKQSFRLRTFGGGTKVEIK
notes: Tested as Fab
Regarding B13, the MFI amounted to 4720 in experiment [1] and 1760 in experiment [2].

B14: h3G10.1.91 VH / h3G10.A58A VL Fab (Fab, V domains shown)
VH: EVQLVESGGGLVQPGGSLRLSCAASGFTFSDYYMSWVRQAPGKGLEWVGFIRHKANFETTEYSTSVKGRFTISRDDSKNSLYLQMNSLKTEDTAVYYCARDLPGFAYWGQGTLVTVSS
VL: DIVMTQSPDSLAVSLGERATINCKSSQSLFNSHTRKNYLAWYQQKPGQPPKLLIYWASARGSGVPDRFSGSGSGTDFTLTISSLQAEDVAVYYCKQSFRLRTFGGGTKVEIK
notes: Tested as Fab
For the molecule B14, the MFI in experiment [3] was determined as 5050. For the same molecule, in experiment [4], binding was characterised by a dissociation constant (Kd) of 380 pM, the koff is 0.000341 s⁻¹, the kon came out at 908000 M⁻¹ s⁻¹ and the “t½” value turned out to be 33.9 min.

B15: h3G10.2.5 VH / h3G10.2.72 VL Fab (Fab, V domains shown)
VH: EVQLVESGGGLVQPGGSLRLSCAASGFTFSDYYMSWVRQAPGKGLEWVGFIRHKANIYTTEYSTSVKGRFTISRDDSKNSLYLQMNSLKTEDTAVYYCARDLPGFAYWGQGTLVTVSS
VL: DIVMTQSPDSLAVSLGERATINCKSSQSLFNSRTRKNYLAWYQQKPGQPPKLLIYWASARESGVPDRFSGSGSGTDFTLTISSLQAEDVAVYYCKQSFRLRTFGGGTKVEIK
notes: Tested as Fab
Turning to B15, the values for the MFI in experiment [1] and in experiment [2] were 2790 and 390, respectively.

Source of the values: patent US20150037328A1 (Pfizer, published 2015).
